Results: the RNAGym collection of RNA variant scans (doi:10.7554/elife.80360)

B1: Hammerhead Ribozyme (parent)
chain: ACCGGAUGUGCUUUCCGGUCUGAUGAGUCCGUGAGGACGAAACAG

Variants of: B1
Test: self-cleavage, relative activity (ratio to wild type); higher = more cleavage; co-transcriptional

Variant	self-cleavage
ACCGGAUGCGCCUUCCGGUCUGAUGAGUCCGUGAGGACGAAACAG	0.982
ACCGGAUGCGCGUUCCGGUCUGAUGAGUCCGUGAGGACGAAACAG	1.1
ACCGGAUGCGCAUUCCGGUCUGAUGAGUCCGUGAGGACGAAACAG	1.15
ACCGGAUGCCCUUUCCGGUCUGAUGAGUCCGUGAGGACGAAACAG	1.07
ACCGGAUGCUCUUUCCGGUCUGAUGAGUCCGUGAGGACGAAACAG	0.795
ACCGGAUGCACUUUCCGGUCUGAUGAGUCCGUGAGGACGAAACAG	1.19
ACCGGAUGCGCUUUCCGGUCUGAUGAGACCGUGAGGACGAAACAG	0.717
ACCGGAUGCGCUUUCCGGUCUGAUGAGUCCGUGAGGACGAAACAU	0.591
ACCGGAUGCGCUUUCCGGUCUGAUGAGUCCGUGAGGACGAAACAA	0.78
ACCGGAUGCGCUUUCCGGUCUGAUGAGUCCGUGAGGACGAAACAC	0.648
ACCGGAUGCGCUUUCCGGCCUGAUGAGUCCGUGAGGACGAAACAG	0.514
ACCGGAUGCGCUUUCCGGACUGAUGAGUCCGUGAGGACGAAACAG	0.286
ACCGGAUGCGCUUUCCGGGCUGAUGAGUCCGUGAGGACGAAACAG	0.525
ACCGGAUGCGCUUUCCGGUCGGAUGAGUCCGUGAGGACGAAACAG	0.72
ACCGGAUGCGCUUUCCGGUCCGAUGAGUCCGUGAGGACGAAACAG	0.718
ACCGGAUGCGCUUUCCGGUCAGAUGAGUCCGUGAGGACGAAACAG	0.496
ACCGGAUGCGCUUUCCGGUCUGAUGAGUCCGUGAGGACGAAAGAG	0.274
ACCGGAUGCGCUUUCCGGUCUGAUGAGUCCGUGAGGACGAAAUAG	0.38
ACCGGAUGCGCUUUCCGGUCUGAUGAGUCCGUGAUGACGAAACAG	0.713

Variant	self-cleavage
ACCGGAUGCGCUUUCCGGUCUGAUGAGUCCGUGAAGACGAAACAG	0.814
ACCGGAUGCGCUUUCCGGUCUGAUGAGUCCGUGACGACGAAACAG	0.498
ACCGGAUGCGCUCUCCGGUCUGAUGAGUCCGUGAGGACGAAACAG	0.843
ACCGGAUGCGCUGUCCGGUCUGAUGAGUCCGUGAGGACGAAACAG	0.946
ACCGGAUGCGCUAUCCGGUCUGAUGAGUCCGUGAGGACGAAACAG	1.18
ACCGGAUGCGCUUUCCAGUCUGAUGAGUCCGUGAGGACGAAACAG	0.754
ACCGGAUGCGCUUUCCUGUCUGAUGAGUCCGUGAGGACGAAACAG	0.897
ACCGGAUGCGCUUUCCCGUCUGAUGAGUCCGUGAGGACGAAACAG	0.354
ACCGGAUGCGCUUUCCGGUCUGAUGAGUCCGUGAGGACUAAACAG	0.264
ACCGGAUGCGCUUUCCGGUCUGAUGAGUCCGUGAGGACAAAACAG	0.313
ACCGGAUGCGCUUUCCGGUCUGAUGAGUCCGUGAGGACCAAACAG	0.434
ACCGGAUGCGCUUUCCGGUCUGAGGAGUCCGUGAGGACGAAACAG	0.948
ACCGGAUGCGCUUUCCGGUCUGAAGAGUCCGUGAGGACGAAACAG	1.29
ACCGGAUGCGCUUUCCGGUCUGACGAGUCCGUGAGGACGAAACAG	0.94
ACCGGAUGCGCUUUCCGGUCUGAUGAGUCCGUCAGGACGAAACAG	1.18
ACCGGAUGCGCUUUCCGGUCUGAUGAGUCCGUAAGGACGAAACAG	0.952
ACCGGAUGCGCUUUCCGGUCUGAUGAGUCCGUUAGGACGAAACAG	1.24
ACCGGAUGCGCUUUCCGGUCUGAUGAAUCCGUGAGGACGAAACAG	0.973
ACCGGAUGCGCUUUCCGGUCUGAUGACUCCGUGAGGACGAAACAG	0.774

Variant	self-cleavage
ACCGGAUGCGCUUUCCGGUCUGAUGAUUCCGUGAGGACGAAACAG	0.505
ACCGGAUGCGCUUUCCGUUCUGAUGAGUCCGUGAGGACGAAACAG	0.738
ACCGGAUGCGCUUUCCGAUCUGAUGAGUCCGUGAGGACGAAACAG	0.627
ACCGGAUGCGCUUUCCGCUCUGAUGAGUCCGUGAGGACGAAACAG	0.47
ACCGGAUGCGCUUUCCGGUCUAAUGAGUCCGUGAGGACGAAACAG	0.34
ACCGGAUGCGCUUUCCGGUCUUAUGAGUCCGUGAGGACGAAACAG	0.307
ACCGGAUGCGCUUUCCGGUCUCAUGAGUCCGUGAGGACGAAACAG	0.266
ACCGGAUGCGCUUUCCGGUCUGAUAAGUCCGUGAGGACGAAACAG	0.312
ACCGGAUGCGCUUUCCGGUCUGAUCAGUCCGUGAGGACGAAACAG	0.294
ACCGGAUGCGCUUUCCGGUCUGAUUAGUCCGUGAGGACGAAACAG	0.309
ACCGGAUGCGCUUUCCGGUCUGAUGAGUCCGUGAGAACGAAACAG	0.511
ACCGGAUGCGCUUUCCGGUCUGAUGAGUCCGUGAGUACGAAACAG	0.683
ACCGGAUGCGCUUUCCGGUCUGAUGAGUCCGUGAGCACGAAACAG	0.82
ACCGGAUGCGCUUUCCGGUCUGAUGAGUCCCUGAGGACGAAACAG	1
ACCGGAUGCGCUUUCCGGUCUGAUGAGUCCUUGAGGACGAAACAG	0.948
ACCGGAUGCGCUUUCCGGUCUGAUGAGUCCAUGAGGACGAAACAG	1.39
ACCGGAUGCGCUUACCGGUCUGAUGAGUCCGUGAGGACGAAACAG	0.872
ACCGGAUGCGCUUCCCGGUCUGAUGAGUCCGUGAGGACGAAACAG	0.518
ACCGGAUGCGCUUGCCGGUCUGAUGAGUCCGUGAGGACGAAACAG	1.29
